Biological target: T1, Pneumolysin, 57 kDa (full length w/His-tag) (Streptococcus pneumoniae, UniProt Q04IN8 2-471)
T1 construct: also called Antigen; PLY
Assay: SPR, Mab captured on Protein-G chip

T1 sequence (Q04IN8 2-471): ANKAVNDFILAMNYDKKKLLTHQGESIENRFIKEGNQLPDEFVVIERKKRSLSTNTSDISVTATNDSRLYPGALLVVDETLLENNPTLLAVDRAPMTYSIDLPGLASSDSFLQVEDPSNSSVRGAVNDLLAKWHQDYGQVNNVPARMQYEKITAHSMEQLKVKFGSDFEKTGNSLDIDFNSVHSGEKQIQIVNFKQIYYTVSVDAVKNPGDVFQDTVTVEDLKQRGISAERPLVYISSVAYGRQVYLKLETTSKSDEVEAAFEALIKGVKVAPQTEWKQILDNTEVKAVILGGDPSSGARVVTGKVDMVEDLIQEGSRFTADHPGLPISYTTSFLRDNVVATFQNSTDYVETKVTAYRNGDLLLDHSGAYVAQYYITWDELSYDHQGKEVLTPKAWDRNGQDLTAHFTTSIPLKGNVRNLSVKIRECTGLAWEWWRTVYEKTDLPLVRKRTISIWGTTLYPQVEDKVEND

B1: 26-5F12.1 (antibody, V domains shown)
VH: VKLQESGAEVKKPGASVKVSCTASGYIFTSYAIHWVRQAPGQRLEWMGWINAGYGNTKYSQKFQGRVSITRDKSASTAYMELSSLRSEDTAVYYCARRGQQLAFDYWGQGTTVTVSS
VL: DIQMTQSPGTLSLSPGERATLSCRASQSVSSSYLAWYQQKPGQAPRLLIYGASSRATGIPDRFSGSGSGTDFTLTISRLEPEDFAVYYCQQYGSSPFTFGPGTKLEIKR
notes: also called PdB26-5F12.1
  Kd: 820 pM
  koff: 0.00043 s⁻¹
  kon: 530000 M⁻¹ s⁻¹

Reference: patent US20090214547A1 (published 2009)
